Laboratory results: patent US9012617

What was measured:
[1] = target: EphA4; assay: cell-based or functional assay
[2] = target: EphB2; assay: cell-based or functional assay

| One phase association Tau (GPhosEphA ratio fluorescence after Ephrin addition) [1] | One phase association Tau (GPhosEphB ratio fluorescence after Ephrin addition) [2] | Substance |
| --- | --- | --- |
| 9.6 | – | pre-clustered EphrinA1-FC (Fc fusion) |
| – | 9.78 | pre-clustered EphrinB2-FC (Fc fusion) |
